{"source": "patent US20110300138A1", "about": "(published 2011)", "key": {"[1]": {"target": "human TSHR on transfected CHO cells (human, UniProt P16473 22-764)", "experiment": "cell-based or functional assay"}, "TSHR260": {"target": "T1, TSHR260 (human, UniProt P16473 22-260)", "T1 construct": "Expressed in insect cells; coated on tubes or wells by way of a mouse TSHR MAb (14C4 F(ab')2 in the stability ELISA); also called TSHR fragment of amino acids 22-260", "experiment": "Scatchard analysis, TSHR260 coated tubes (mean±SD, n=3)"}, "[2]": {"target": "T2, full length human TSHR, detergent-solubilised, coated on tubes or ELISA plate wells (human, UniProt P16473 22-764)", "T2 construct": "Full length receptor expressed in CHO cells, solubilised with detergent and held on the plastic by a mouse MAb to the C-terminus; The leader 1-21 is stated for the TSHR260 construct of the same receptor; also called TSH receptor; TSHR (full length)", "experiment": "inhibition of 125I-TSH binding to TSHR coated tubes, dilutions in HBD sera"}, "[3]": {"target": "T2, full length human TSHR, …", "experiment": "inhibition of 125I-TSH binding to TSHR coated tubes, dilutions in assay buffer", "method": "Binding inhibition assays were carried out using TSHR coated tubes as described in WO2004/050708A2. […] After aspiration, the tubes were washed and 100 μL of ¹²⁵I-labelled protein (5×10⁴ cpm) added and incubated for 1 hour at room temperature with shaking. The tubes were then aspirated, washed and counted in a gamma counter. Inhibition of labelled protein binding was calculated as 100×[1−(cpm bound in the presence of test material/cpm bound in the presence of control material)]."}, "[4]": {"target": "T2, full length human TSHR, …", "experiment": "Scatchard analysis, 125I-labelled antibody on full length TSHR coated tubes (mean±SD, n=3)"}}}
{"binder": "K1-18 IgG (antibody, V domains shown, Human IgG1 kappa purified from hetero-hybridoma supernatant; also called human MAb K1-18) VH: EVQLVQSGAEVKKPGESLKISCKGSGYSFTNYWIGWVRQMPGKGLEWMGIIYPYDSDTRYSPSFEGQVTISADKSIRTAYLHWSSLKASDTAMYYCVRPRDGSYPYDAFDIWGQGTMVTVSS VL: EIVLTQSPGTLSLSPGERATLSCRASQSVSNNYLAWYQQKPGQAPRLLIYGASSRATGIPDRFSGSGSGTDFTLTISRLEPEDFAVYYCQHCGSSLRAFGQGTKVEIKR", "values": [{"measurement": "potency of TSHR cyclic AMP stimulation, M22 against K1-18", "setting": "[1]", "result": "~1.5", "unit": "fold"}, {"measurement": "Ka", "setting": "TSHR260", "result": "5.9e+09", "unit": "M⁻¹"}, {"measurement": "fold activity in inhibition of TSH binding against K1 donor serum IgG", "setting": "[2]", "result": 6600, "unit": "times"}, {"measurement": "fold activity in inhibition of TSH binding against K1 donor serum IgG", "setting": "[3]", "result": 4700, "unit": "times"}, {"measurement": "Ka", "setting": "[4]", "result": "6.7e+09", "unit": "M⁻¹"}]}
